Paper PMC2557009

What was measured:
[1] = target: tubulin (sheep brain) (sheep); test: co-sedimentation; 20 μM tubulin polymerised with 5 μM YB-1 in buffer M with 10% glycerol at 37°C to steady state, microtubules pelleted at 300 000 × g; SDS-PAGE, visual estimation on Coomassie stained gels; settings: scale: mole of YB-1 per mole of tubulin heterodimer
[2] = target: tubulin (sheep brain) (sheep); test: co-sedimentation; 20 μM tubulin polymerised with 10 μM YB-1 in buffer M with 10% glycerol at 37°C to steady state, microtubules pelleted at 300 000 × g; SDS-PAGE, visual estimation on Coomassie stained gels; settings: scale: mole of YB-1 per mole of tubulin heterodimer

Sequence of YB-1 (Q28618 whole entry): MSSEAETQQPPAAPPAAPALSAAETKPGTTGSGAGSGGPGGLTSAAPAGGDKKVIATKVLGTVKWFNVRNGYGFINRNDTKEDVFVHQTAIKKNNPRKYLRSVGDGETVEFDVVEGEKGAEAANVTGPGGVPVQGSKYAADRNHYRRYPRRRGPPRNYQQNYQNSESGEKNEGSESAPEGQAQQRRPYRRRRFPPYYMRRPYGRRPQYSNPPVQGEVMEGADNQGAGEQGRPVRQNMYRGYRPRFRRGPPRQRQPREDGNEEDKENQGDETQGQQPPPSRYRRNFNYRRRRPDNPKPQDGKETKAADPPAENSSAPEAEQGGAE

stoichiometry N [1]: 0.33
stoichiometry N [2]: 0.5
Substance: YB-1 (from UniProt Q28618 1-324) (natural protein)
